Laboratory results as given in publication PMC5481561, “The crystal structure of mammalian inositol 1,3,4,5,6-pentakisphosphate 2-kinase reveals a new zinc-binding site and key features for protein function” (The Journal of Biological Chemistry, 2017).

Legend:
[1] = substrate: O=P(O)(O)O[C@@H]1[C@@H](OP(=O)(O)O)[C@H](OP(=O)(O)O)[C@H](O)[C@H](OP(=O)(O)O)[C@H]1OP(=O)(O)O; assay: HPLC of IP5-dependent ATP to ADP conversion; assay type: biochemical, Mus musculus; settings: 50 μM ATP, 1 mM MgCl2, 20 mM Hepes, pH 7.3, 0.2–5 μM IP5
[2] = substrate: O=P(O)(O)O[C@@H]1[C@@H](OP(=O)(O)O)[C@H](OP(=O)(O)O)[C@H](O)[C@H](OP(=O)(O)O)[C@H]1OP(=O)(O)O; assay: HPLC of IP5-dependent ATP to ADP conversion; assay type: biochemical, Mus musculus; settings: 50 μM ATP, 1 mM MgCl2, 20 mM Hepes, pH 7.3, 0.2–5 μM IP5; remark: listed apart in the source
Description: HPLC of IP5-dependent ATP to ADP conversion on LSLt-ΔC-mIP5 2-K | showing very similar kinetic parameters (Fig. 3A)

| Protein | Km [1] | Km [2] |
| --- | --- | --- |
| LSLt-ΔC-mIP5 2-K (Mus musculus) (protein, lacks the 21 C-terminal residues (stop codon at 469); LSLt (Laetiporus sulphureus lectin) tag kept; E. coli BL21 Star (DE3)) MEEGKMDENEWSYHGEGNKSLVVAHAQRCVVLRFLKFPPNKKKTSEEILQHLQNIVDFGKNVMKDFLGENYVHCGEVVQLPLEFVKQLCLKIQCERPESRCDKDLDTFSGYAMCLPNLTRLQTFHFAEHRPILCVEIKPKCGFIPFSNDVTHEMKHKVCRYCMHQHLKVATGKWKKISKYCPLDLYSGNKQRMHFALRSLLQETQNNLRIFKNGELIYGCGDARSPVADLKELAHHLKPFFFPSNGLASGPHCTKAVIRELVHVITRVLLSSSEKARAGALRLGLQGPRVCEASPFSRSLHNQGKNTSEHSGLPKGCLLYKTLQVQMLDQLDIEGLYPLYKRVEQYLEEFPEERKTLQIDGPYDEVFYQKLLDLSTEDDGTVAFALTKVQQYRVAMTAKDCSIMIALSPCLQGTSSDQRPVIPSSRSRLAFSVSVLDLDLKPYESIPHQYKLDSKIVNYYSKTVHAKD | 0.29 µM |  |
| LSLt-ΔC-mIP5 2-K (Mus musculus; K173A) (protein, lacks the 21 C-terminal residues (stop codon at 469); LSLt (Laetiporus sulphureus lectin) tag kept; E. coli BL21 Star (DE3)) MEEGKMDENEWSYHGEGNKSLVVAHAQRCVVLRFLKFPPNKKKTSEEILQHLQNIVDFGKNVMKDFLGENYVHCGEVVQLPLEFVKQLCLKIQCERPESRCDKDLDTFSGYAMCLPNLTRLQTFHFAEHRPILCVEIKPKCGFIPFSNDVTHEMKHKVCRYCMHQHLKVATGAWKKISKYCPLDLYSGNKQRMHFALRSLLQETQNNLRIFKNGELIYGCGDARSPVADLKELAHHLKPFFFPSNGLASGPHCTKAVIRELVHVITRVLLSSSEKARAGALRLGLQGPRVCEASPFSRSLHNQGKNTSEHSGLPKGCLLYKTLQVQMLDQLDIEGLYPLYKRVEQYLEEFPEERKTLQIDGPYDEVFYQKLLDLSTEDDGTVAFALTKVQQYRVAMTAKDCSIMIALSPCLQGTSSDQRPVIPSSRSRLAFSVSVLDLDLKPYESIPHQYKLDSKIVNYYSKTVHAKD |  | 0.2729 ± 0.0895 µM |
